The record followed here is patent publication US20070099283A1 (published 2007).

The test has as its target T1, mature recombinant proteinase K from Tritirachium album Limber (processed, natured from pro-proteinase K) (Tritirachium album Limber, UniProt P06873 106-384).
T1 construct: Made in E. coli as pro-proteinase K inclusion bodies, natured in vitro and cleaved autocatalytically; also called processed recombinant proteinase K; native proteinase K
Put plainly: chromatographic methods and SDS-PAGE of natured pro-proteinase K.

T1 sequence (P06873 106-384): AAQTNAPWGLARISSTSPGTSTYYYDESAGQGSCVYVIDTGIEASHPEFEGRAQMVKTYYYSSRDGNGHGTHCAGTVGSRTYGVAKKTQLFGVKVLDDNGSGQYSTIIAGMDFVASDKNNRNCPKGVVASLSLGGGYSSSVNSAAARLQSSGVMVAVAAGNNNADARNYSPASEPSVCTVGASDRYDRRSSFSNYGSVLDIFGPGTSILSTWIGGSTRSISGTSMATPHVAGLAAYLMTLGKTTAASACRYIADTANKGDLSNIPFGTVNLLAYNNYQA

B1: propeptide (prosequence) of proteinase K from Tritirachium album Limber (peptide)
chain: APAVEQRSEAAPLIEARGEMVANKYIVKFKEGSALSALDAAMEKISGKPDHVYKNVFSGFAATLDENMVRVLRAHPDVEYIEQDAVVTIN
In the case of B1, the binding result is recorded as “binds”.
